Here are results for one sequence from article PMC7060721.

In this experiment the target is ENLARGED VESSEL ELEMENT (EVE) homolog of Physcomitrella patens (Physcomitrella patens). The experiment can be described thus: SEC-MALS.

As for “ENLARGED VESSEL ELEMENT (EVE) homolog of Physcomitrella patens (natural protein)”, the stoichiometry N came out at 5.
